# Measurements reported in the DeepSol protein solubility set.
# Assay: soluble on expression in E. coli; label from the status in PepcDB or PDB records
row,Sequence,soluble on expression in E. coli
1,MSREDELLEKLDECENATAFLQVSNKIINLKLKALLPSVFVQDDLVKEYAVDPLLREDGPLVTTDVVSKLMFAMGKISLQTYADIGLYDQVLEYVVTQPEKIAFTDDVIYDFIKNQAVLSSQQDCFYLESINQLKFSSFESFSQMRYESLIKTVLKLSCEMLIERIEE,not soluble
2,MSRSRQPPLVTGISPNEGIPWTKVTIRGENLGTGPTDLIGLTICGHNCLLTAEWMSASKIVCRVGQAKNDKGDIIVTTKSGGRGTSTVSFKLLKPEKIG,soluble
3,MSRTYLELSQDDGSAHKFYEVTVQGQVVTVRYGRIGAAGQTQTSTFPTAQKAEAAAAKKIGEKVRKGYEAAVQGQRAPRAVSRRQVASAPSTARAVAPVLWRFRTGSAAFGIHIDEDRCWVGNQAGDVYTLAHGGEVLARYQLPDGVKCLVADDFWIYAGCDDGRVYDLSSKLPFAAYDIAADVDIFWLDIHEGVLNVADRAGRLTVIDHEDEHQWSRGGRGEHAWMVRADDRAVYHGHTRGVTAHSPDGGVELWHTPTQGAVLFGWQEDDAVYAGTARHTVQRLSKATGGIEATYHCDSPVYSCATSPGGRFVFAGDSASSVYCFDRDGTRLWKLGTGGGSALSMQYRDERLFLVTTDGSLVCVDASEAAVTAAQQGSVPVVRDVKLAATLPTYAPATAATAVTTVTVAPAGSVVVECVQENGRTRIHVVTEGYDRSWNVQFPRAIREPGARYVVDALHAASGGFYRVRGDIRRLRLEHHHHHH,not soluble
4,MSRVKNVVELLETKGVDALYLTKKTNVNYISGFPDEEAYAVICKDGNFLVTDSRYMELAEKVCKDFEIINWHNFDRSVAKAVKSVCDKVGIKKLGFERTNIVFDKYEELKNLIEKDNGELIPTENIVETLRYVKDKDEIKNTRKACEIADKALEELIPHIKAGVSEIELATKLEYFMKMNGAQNIGFETILISGAKTSLLHGKPSDKIIEKGDFVLIDYGAMYNGYISDTTRTFIVGGASEKQLEIYNLVKEAQNVGVENMKAGVHATIPDAEIRKVVKKYEDYYYQGIGHGVGRDVHEEPFIGNYGDKIIEEGCIITMEPGIYFPGWGGVRIEDTVLITKNGPERLTKFPKDLMILDK,not soluble
5,MSSAIERKSLDPSEEPVDEVLQIPPSLLTCGGCQQNIGDRYFLKAIDQYWHEDCLSCDLCGCRLGEVGRRLYYKLGRKLCRRDYLRLFGQDGLCASCDKRIRAYEMTMRVKDKVYHLECFKCAACQKHFCVGDRYLLINSDIVCEQDIYEWTKINGMI,not soluble
6,MSSDDYESIDTPRVASLADMNRLPTQSRHSSYSTDDDEDVTPTPSASNSAPKNTILDPLQAQFLHPNSENSDIDEPRVQLREKKKATRAQDATVSHFLEDQVPNQKFKRRSAERHSMLAGAADFASRRSPFHLSGANGSGRWTDLFSSSRFKRKQRQELNNVPSSSYSNNDYGTYAGTQSIGGFSIASNSTGESFALSGTEDEIREEFRKIMLDKGLPEADKIISNTPLDQMKMMIENSRKQDNQAKGRSPEWVVRVLGEILKTKNIPECKQDIVTVRVQLVGQGVSFLNKFAVEVHDESGRTGADLICCLYSLVLKRLRSSEVGSKYELDLIDFLQEIVRCVRTLINTHVGLVLVLRRNSPVYSLLIQTLCVLNRREQNDHEAAEIRAIRVDVVRTCYTLIFVQHDTLSTPIEMTGQQKMFMELSLIAKAESKRLNEPVSRFRPLISCIDFLESRDPKQGMYVLLMINMMINGVDRNISDDQMWTEETMWQARMRLRSEAAKDKLHKYIEKFTTSETVNSQIRDVAQNMLTEHNADLETLMGKLENVKGEYDTLDGCFELLAANSEATGTETVLLSILQLMTLTNEDMSTKRSYMKLIETAISDILLHRTPIDPQADYKFVFEVPVAEIIDKMQDEEMAKKVRQATSAKQEAVAMQGEYWKTLCDFQKEAEELRKHINDPKIPLPPPTKMNLSAPSTSAGGSSALPPITGGPPPPPGLPPITGGPPPPPPPGGLPPITGGPPPPPPPGGLPPISGGPPPPPPPPGGCPPPPPPPPPGGFKGGPPPPPPPGMFAPMAPVIPDYLPPKKVPKVDGPMRKFPWGAHTINPRDIPRESFWVGTNEEQLTSDRMFDRLRTKFATKPAANSGTLGGVLNSKKKVKTAQVIHDDKLLQKLGILQGSIKMSHSELKLAILEVNEKVLTVGFLEQLRSAMPVEKELIDKLRAVNKAQFEEMPEGEQFVTRLLQIQGLPLRLDLVLFKMRFSEVLNELKPAMSSVMEACEEVRASEGFRTFLKLVLATGNFMGGATKNYSSAYAFDMRMLTRLVDTKDVDNRHTLLHHLIEEMKRIDPRRARFALTDFHHCIESSRVNADEIRKTVQLTENNIKKLENCLKVYKIQGERDLFDEKMRPFHEKAVKEFSTVSSMCGKMKNDWESLVKYYAFNDKKYPMEEFFADIRTFSEQYSNAWKELDAEAEAKRKEAEFETQKRKQLQQSQQERKPLQERQAINRVPRTPAAMIRVSTAADKAGVLDELERATGNADFLQTLMSATNSRTPRSGLPARTRGGGRLGGGLDRQRSRHQNALGQLQDLTGCASEPVLSGQFARSRNVPQNDLQRQNMELPSSVKPTTALDRAKAFGVGLPIGQNELKVRVRRKGQPAVPVTNINGTSQISPTHKENDPTGSSSTSSGPASSNTATSSSSGTVVPSTDDLLARLNDF,not soluble
7,MSSDRIVITGVAINTPIGDTLDLVGNNLLSGKSAIGYWRNFDTSNIYSKIGGQIPEYDIEGKLHAFSNRIPDIVLSRAEKVFKQTTKGVQLSVLMAMEAWLDAGLFEHIIDPFDCGIICGGHNLSDKYLLDQQKIFSDEPEFIDAFSGLNSLDTDHSSSVAQVLNTKGFAYLVGGTCATGNIAIQTAINAIKVDKKQVVAVVCPMASFHPMMLHSLTILEAICYSQYQDTPTKASRPYDINRSGFLPSEGGAVLIFEQAEHAKNRGAKIYAELLGASVNSDANHLGDPSHEGQVRVIQDVLKKCNISPEQVDYVSAHATSTKLGDIVELKSIKRVFGSHAEKLIINAPKSLLGHTMWASGVVEAAIAIWQMRQGEFHQSHNIETLDPAVELNVCASGNVKKEVNIFLNNSFGMGGINSASLFSRYHG,not soluble
8,MSSEAVDATTLVIIPTYNELENLPLIVDRVRTATPDVHVLIVDDNSPDGTGERADKLAADDDHIFVLHREGKGGLCAAYMAGFQWGLERDYQVLCEMDADGSHAPEQLHLLLAEITNGADLVIGSRYVPGGRVVNWPKNRWLLSKGGNVYISVALGAGLTDMTAGYRAFRREVLEALPLDELSNAGYIFQVEIAYRAVEAGFDVREVPITFTEREIGESKLDGSFVKDSLLEVTKWGLKHRGGQAKELSKEMVGLLNYEWKHFKKRNTWLLEHHHHHH,not soluble
9,MSSEELEQVWSNIKSEARALAECEPMLASFFHATLLKHENLGSALSYILANKLANPIMPAIAIREVVEEAYRSDAHMIVSAARDILAVRLRDPAVDKYSTPLLYLKGFHALQAYRIGHWLWAQDRKALAIYLQNQVSVAFGVDIHPAATIGCGIMLDHATGIVIGETAVVENDVSILQSVTLGGTGKTSGDRHPKIREGVMIGAGAKILGNIEVGRGAKIGAGSVVLQSVPAHTTAAGVPARIVGKPESDKPSLDMDQHFNGSIQGFEYGDGI,not soluble
10,MSSENDFVEFSSMFERIIQGRGDGLSRFLPVIVALAAREDDDDQGSTDQTTRRGDPLSPRFVMIGSRSGLDDFFSDGGKQGRSPALKSEVENMPRVVIGEDKEKYGGSCAICLDEWSKGDVAAEMPCKHKFHSKCVEEWLGRHATCPMCRYEMPVEEVEEEKKIGIWIGFSINAGDRRN,not soluble
11,MSSHPLSISSLSPSYSHRPPGAEQHTVVAGRTSKSAREQCVQGQMVIMQPIRAFVDQHFRAFCQSVELYTISYFQMVPMNPELMHYPNQPHMMPGYPMINAYQQSYLQNPAQWTPEMLLCMQMQMQQMVPGTATNSTYMPPQSKNTVTPNATSPLSQISDRDSGNDTISPPLTSQNRYVFLLRGKKKSCAMFECLGGLYFMVQFVSRNT,not soluble
12,MSSIRYRRPPIIERRYERTPSYSTIPRDIHVSFYHNNYHRSKILYLNKFNAMEKLIEAAHELYPSNGVYRLFSDSTIGAQNELNDSVQVMECVQNPDHILPHLHIRLEDYRPRSISRNYHEVNVPIIRTPSQHSIHQSVRFNDNKRHHHHHHHDSIRNFVHHDTPCRNCFRIIVGSRYHCLQCPDYDICGDCEKDLVHYEHALLRIVTPRVTSIPDYVTVNAPSYIFPEHRYDIKREHYHWF,not soluble
13,MSSIVEHVVLFKLNDDDVDSGKINSMVNGINELVNLDQVLHLYCGSIHRLITTTASDFTHVLHSRYRSKEDLNAYAIHPDHVRVVKESESIREDIMAVDWIAEQAPEALAPPLGSIGKITLLKLKENVMEEAKLEIMEVMKEKFEGIDQITVGENFSPGRSKDFSIGSISYFRDLGEIEAVDDQMKLQNDKIRDYVDDTIVVEFNVPSSS,soluble
14,MSSLGASFVQIKFDDLQFFENCGGGSFGSVYRAKWISQDKEVAVKKLLKIEKEAEILSVLSHRNIIQFYGVILEPPNYGIVTEYASLGSLYDYINSNRSEEMDMDHIMTWATDVAKGMHYLHMEAPVKVIHRDLKSRNVVIAADGVLKICDFGASRFHNHTTHMSLVGTFPWMAPEVIQSLPVSETCDTYSYGVVLWEMLTREVPFKGLEGLQVAWLVVEKNERLTIPSSCPRSFAELLHQCWEADAKKRPSFKQIISILESMSNDTSLPDKCNSFLHNKAEWRCEIEATLERLKKLERDLSFKEQELKERERRLKMWEQKLTEQSNTPLLLPLAARMSEESYFESKTEESNSAEMSCQITATSNGEGHGMNPSLQAMMLMGFGDIFSMNKAGAVMHSGMQINMQAKQNSSKTTSKRRGKKVNMALGFSDFDLSEGDDDDDDDGEEEDNDMDNSE,soluble
15,MSSLHKSRIADFQDVLKEPSIALEKLRELSFSGIPCEGGLRCLCWKILLNYLPLERASWTSILAKQRELYAQFLREMIIQPGIAKANMGVSREDVTFEDHPLNPNPDSRWNTYFKDNEVLLQIDKDVRRLCPDISFFQRATDYPCLLILDPQNEFETLRKRVEQTTLKSQTVARNRSGVTNQEQNIKPQFFAFRWLTLLLSQEFLLPDVTRIWDSLFADDNRFDFLLLVCCAMLMLIREQLLEGDFTVNMRLLQDYPITDVCQILQKAKELQDSK,soluble
16,MSSLPETLMNRLHDHERLTQNEGEALYDLDLFTLGREADRRRVKKHGKKVFFNSNRHINPTNICQDICKFCAFSSHRKNPNPYAMSIDEILEIAKESTALGARELHVVSAHNPNYGYQWYGEMFKTIKEALPHIHLKAMTAAEVDFLSRRFEKPYEQVLEDMLLWGVDSMPGGGAEIFDEEVRARLCGGKVSSGRWLEIHGYWHSLGKQSNATMLFGHIENRTHRIDHMLRLRELQDRYGGFNAFIPLLYQKENNFLKVERFPTGQEILKTLAISRILLDNIPHIKAYWATLGLNLAMVAQEFGADDLDGTIQKESIQSAAGSGSGHGVSKEELIFQIKDAGFIPVERDSLYNEIQIYA,not soluble
17,MSSNCTSTTAVAVAPLSASKTKTKKKHFVCQKVKLFRASEPILSVLMWGVNHTINELSNVPVPVMLMPDDFKAYSKIKVDNHLFNKENLPSRFKFKEYCPMVFRNLRERFGIDDQDYQNSVTRSAPINSDSQGRCGTRFLTTYDRRFVIKTVSSEDVAEMHNILKKYHQFIVECHGNTLLPQFLGMYRLTVDGVETYMVVTRNVFSHRLTVHRKYDLKGSTVAREASDKEKAKDLPTFKDNDFLNEGQKLHVGEESKKNFLEKLKRDVEFLAQLKIMDYSLLVGIHDVDRAEQEEMEVEERAEDEECENDGVGGNLLCSYGTPPDSPGNLLSFPRFFGPGEFDPSVDVYAMKSHESSPKKEVYFMAIIDILTPYDTKKKAAHAAKTVKHGAGAEISTVNPEQYSKRFNEFMSNILT,soluble
